Measurements taken from the Human Domainome abundance scans (Beltran et al. 2025).
± gives the uncertainty stated by the source.

Assay: abundance fitness (aPCA) (normalised: wild type 0, dead -1); higher = more abundant; growth selection in yeast, the domain comes from the species named
Conditions: Homo sapiens
Substance “Lipoamide acyltransferase component of branched-chain alpha-keto acid dehydrogenase complex, mitochondrial P175N, P11182” has an abundance fitness of -0.096 ± 0.053. Work on “Lipoamide acyltransferase component of branched-chain alpha-keto acid dehydrogenase complex, mitochondrial I186T, P11182” yielded an abundance fitness of -0.484 ± 0.091. In the case of “Lipoamide acyltransferase component of branched-chain alpha-keto acid dehydrogenase complex, mitochondrial V192R, P11182”, the abundance fitness is reported as -0.027 ± 0.038. Substance “Lipoamide acyltransferase component of branched-chain alpha-keto acid dehydrogenase complex, mitochondrial V191P, P11182” has an abundance fitness of -0.482 ± 0.044. With “Lipoamide acyltransferase component of branched-chain alpha-keto acid dehydrogenase complex, mitochondrial V192C, P11182” the abundance fitness was -0.017 ± 0.055. With “Lipoamide acyltransferase component of branched-chain alpha-keto acid dehydrogenase complex, mitochondrial V177H, P11182” the abundance fitness was -0.547 ± 0.15. For “Lipoamide acyltransferase component of branched-chain alpha-keto acid dehydrogenase complex, mitochondrial R178L, P11182”, the abundance fitness was -0.165 ± 0.038. “Lipoamide acyltransferase component of branched-chain alpha-keto acid dehydrogenase complex, mitochondrial K187I, P11182” showed an abundance fitness of -0.078 ± 0.076. In the case of “Lipoamide acyltransferase component of branched-chain alpha-keto acid dehydrogenase complex, mitochondrial K211V, P11182”, the abundance fitness is reported as -0.049 ± 0.045. With “Lipoamide acyltransferase component of branched-chain alpha-keto acid dehydrogenase complex, mitochondrial M182C, P11182” the abundance fitness was -0.478 ± 0.12. In the case of “Lipoamide acyltransferase component of branched-chain alpha-keto acid dehydrogenase complex, mitochondrial G214T, P11182”, the abundance fitness is reported as -0.034 ± 0.13. With “Lipoamide acyltransferase component of branched-chain alpha-keto acid dehydrogenase complex, mitochondrial I186N, P11182” the abundance fitness was -0.735 ± 0.097. Substance “Lipoamide acyltransferase component of branched-chain alpha-keto acid dehydrogenase complex, mitochondrial L201D, P11182” has an abundance fitness of -0.374 ± 0.14. “Lipoamide acyltransferase component of branched-chain alpha-keto acid dehydrogenase complex, mitochondrial S189P, P11182” showed an abundance fitness of -0.232 ± 0.068. “Lipoamide acyltransferase component of branched-chain alpha-keto acid dehydrogenase complex, mitochondrial Q212Y, P11182” gave an abundance fitness of 0.108 ± 0.44. Substance Nanos homolog 2 D106A, P60321 has an abundance fitness of -0.206 ± 0.098. With “Lipoamide acyltransferase component of branched-chain alpha-keto acid dehydrogenase complex, mitochondrial D197W, P11182” the abundance fitness was -0.387 ± 0.064. Work on “Lipoamide acyltransferase component of branched-chain alpha-keto acid dehydrogenase complex, mitochondrial T174C, P11182” yielded an abundance fitness of -0.141 ± 0.081. “Lipoamide acyltransferase component of branched-chain alpha-keto acid dehydrogenase complex, mitochondrial G198D, P11182” showed an abundance fitness of -0.341 ± 0.11. “Lipoamide acyltransferase component of branched-chain alpha-keto acid dehydrogenase complex, mitochondrial I186D, P11182” gave an abundance fitness of -0.81 ± 0.077. With “Lipoamide acyltransferase component of branched-chain alpha-keto acid dehydrogenase complex, mitochondrial E203G, P11182” the abundance fitness was -0.089 ± 0.04. “Lipoamide acyltransferase component of branched-chain alpha-keto acid dehydrogenase complex, mitochondrial R179I, P11182” showed an abundance fitness of -0.248 ± 0.059. In the case of “Lipoamide acyltransferase component of branched-chain alpha-keto acid dehydrogenase complex, mitochondrial K196H, P11182”, the abundance fitness is reported as -0.17 ± 0.062. Substance “Lipoamide acyltransferase component of branched-chain alpha-keto acid dehydrogenase complex, mitochondrial V192Y, P11182” has an abundance fitness of -0.141 ± 0.079. In the case of “Lipoamide acyltransferase component of branched-chain alpha-keto acid dehydrogenase complex, mitochondrial I205G, P11182”, the abundance fitness is reported as -0.359 ± 0.037. Work on “Lipoamide acyltransferase component of branched-chain alpha-keto acid dehydrogenase complex, mitochondrial V177W, P11182” yielded an abundance fitness of -0.975 ± 0.14. In the case of “Lipoamide acyltransferase component of branched-chain alpha-keto acid dehydrogenase complex, mitochondrial P175W, P11182”, the abundance fitness is reported as -0.136 ± 0.042. For “Lipoamide acyltransferase component of branched-chain alpha-keto acid dehydrogenase complex, mitochondrial L188S, P11182”, the abundance fitness was -0.656 ± 0.059. Work on “Lipoamide acyltransferase component of branched-chain alpha-keto acid dehydrogenase complex, mitochondrial T213H, P11182” yielded an abundance fitness of -0.062 ± 0.058. Substance “Lipoamide acyltransferase component of branched-chain alpha-keto acid dehydrogenase complex, mitochondrial R199E, P11182” has an abundance fitness of 0.088 ± 0.048. “Lipoamide acyltransferase component of branched-chain alpha-keto acid dehydrogenase complex, mitochondrial A173K, P11182” showed an abundance fitness of -0.391 ± 0.068. “Lipoamide acyltransferase component of branched-chain alpha-keto acid dehydrogenase complex, mitochondrial E210A, P11182” gave an abundance fitness of 0.021 ± 0.038. Substance “Lipoamide acyltransferase component of branched-chain alpha-keto acid dehydrogenase complex, mitochondrial R179E, P11182” has an abundance fitness of 0.011 ± 0.068. With “Lipoamide acyltransferase component of branched-chain alpha-keto acid dehydrogenase complex, mitochondrial L209W, P11182” the abundance fitness was -0.27 ± 0.047. Work on “Lipoamide acyltransferase component of branched-chain alpha-keto acid dehydrogenase complex, mitochondrial G195H, P11182” yielded an abundance fitness of -0.7 ± 0.1.
